From publication PMC9482650, “Quantitative fragmentomics allow affinity mapping of interactomes” (Nature Communications, 2022)
Each block holds one binder with its values, some of them ahead of it.

Key:
Assay in all cases: holdup assay
Set-up in all cases: key: below the threshold = too weak to quantify, mostly under pKd 3.1 to 4
APBA3_1, O96018 = target: T1, APBA3_1, O96018
T1 sequence (O96018 389-490, limits assumed, looked up): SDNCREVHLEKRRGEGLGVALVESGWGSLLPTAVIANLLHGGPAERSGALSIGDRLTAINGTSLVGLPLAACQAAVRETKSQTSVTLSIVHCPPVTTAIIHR

ARHGEF12, Q9NZN5-2 = target: ARHGEF12, Q9NZN5-2
ARHGEF12, Q9NZN5-2, sequence (Q9NZN5 other isoform, or with tags, fused parts or gaps): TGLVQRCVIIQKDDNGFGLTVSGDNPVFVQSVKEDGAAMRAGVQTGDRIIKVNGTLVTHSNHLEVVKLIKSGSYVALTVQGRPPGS

DLG2_3, Q15700 = target: DLG2_3, Q15700
DVL3, Q92997 = target: T2, DVL3, Q92997
T2 sequence (Q92997 244-331, limits assumed, looked up): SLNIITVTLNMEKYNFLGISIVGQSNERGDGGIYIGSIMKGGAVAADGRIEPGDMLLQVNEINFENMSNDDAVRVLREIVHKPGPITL

FRMPD1, Q5SYB0 = target: T3, FRMPD1, Q5SYB0
T3 sequence (Q5SYB0 52-145, limits assumed, looked up): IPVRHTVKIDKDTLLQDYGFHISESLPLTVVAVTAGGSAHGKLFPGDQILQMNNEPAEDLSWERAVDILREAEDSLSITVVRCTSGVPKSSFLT

FRMPD2_1, Q68DX3 = target: FRMPD2_1, Q68DX3
FRMPD2_1, Q68DX3, sequence (Q68DX3 770-861): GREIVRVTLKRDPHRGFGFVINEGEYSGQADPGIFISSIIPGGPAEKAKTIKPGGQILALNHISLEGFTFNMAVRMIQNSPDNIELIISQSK

FRMPD2_2, Q68DX3 = target: FRMPD2_2, Q68DX3
FRMPD2_2, Q68DX3, sequence (Q68DX3 944-1038): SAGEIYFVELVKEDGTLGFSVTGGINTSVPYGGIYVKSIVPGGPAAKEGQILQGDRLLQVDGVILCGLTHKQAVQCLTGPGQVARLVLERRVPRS

FRMPD3, Q5JV73 = target: FRMPD3, Q5JV73
FRMPD3, Q5JV73, sequence (Q5JV73 12-100): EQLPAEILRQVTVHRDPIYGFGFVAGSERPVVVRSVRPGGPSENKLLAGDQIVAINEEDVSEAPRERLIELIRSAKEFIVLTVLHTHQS

GORASP1, Q9BQQ3 = target: GORASP1, Q9BQQ3
GORASP1, Q9BQQ3, sequence (Q9BQQ3 1-208): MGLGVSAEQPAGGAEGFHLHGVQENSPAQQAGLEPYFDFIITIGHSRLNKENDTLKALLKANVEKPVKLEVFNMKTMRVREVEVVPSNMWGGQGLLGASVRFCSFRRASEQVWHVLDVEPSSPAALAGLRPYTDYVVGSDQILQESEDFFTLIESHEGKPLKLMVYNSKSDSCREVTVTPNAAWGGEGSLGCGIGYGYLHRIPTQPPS

GRIP2_3, Q9C0E4 = target: GRIP2_3, Q9C0E4
GRIP2_3, Q9C0E4, sequence (Q9C0E4 238-339): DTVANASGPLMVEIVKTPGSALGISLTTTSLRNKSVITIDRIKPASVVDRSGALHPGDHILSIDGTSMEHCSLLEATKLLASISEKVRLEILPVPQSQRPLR

HTRA3, P83110 = target: T4, HTRA3, P83110
T4 sequence (P83110 354-453, limits assumed, looked up): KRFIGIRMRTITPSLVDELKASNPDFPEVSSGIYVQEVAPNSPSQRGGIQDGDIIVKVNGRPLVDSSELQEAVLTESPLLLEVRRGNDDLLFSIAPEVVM

Inadl_4, Q8NI35 = target: Inadl_4, Q8NI35
Inadl_4, Q8NI35, sequence (Q8NI35 547-651): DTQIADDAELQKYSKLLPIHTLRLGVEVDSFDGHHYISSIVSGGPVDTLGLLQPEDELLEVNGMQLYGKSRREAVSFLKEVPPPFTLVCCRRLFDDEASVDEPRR

Inadl_5, Q8NI35 = target: Inadl_5, Q8NI35
Inadl_5, Q8NI35, sequence (Q8NI35 673-780): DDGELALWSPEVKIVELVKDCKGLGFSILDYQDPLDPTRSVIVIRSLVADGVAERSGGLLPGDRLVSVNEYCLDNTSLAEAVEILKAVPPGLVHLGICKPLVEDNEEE

LIN7C, Q9NUP9 = target: T5, LIN7C, Q9NUP9
T5 sequence (Q9NUP9 88-185, limits assumed, looked up): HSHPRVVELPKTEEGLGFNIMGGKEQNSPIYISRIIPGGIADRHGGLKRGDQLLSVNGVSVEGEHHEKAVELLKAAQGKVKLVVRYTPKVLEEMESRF

MAGI2_4, Q86UL8 = target: MAGI2_4, Q86UL8
MAGI2_4, Q86UL8, sequence (Q86UL8 772-865): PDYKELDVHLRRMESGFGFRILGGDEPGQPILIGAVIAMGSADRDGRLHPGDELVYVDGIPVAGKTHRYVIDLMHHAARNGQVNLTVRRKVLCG

MAST1, Q9Y2H9 = target: MAST1, Q9Y2H9
MAST1, Q9Y2H9, sequence (Q9Y2H9 962-1065): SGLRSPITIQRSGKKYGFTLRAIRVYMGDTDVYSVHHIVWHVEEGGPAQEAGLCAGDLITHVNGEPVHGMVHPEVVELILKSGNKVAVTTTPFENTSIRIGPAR

PDZD7_3, Q9H5P4 = target: T6, PDZD7_3, Q9H5P4
T6 sequence (Q9H5P4 857-944, limits assumed, looked up): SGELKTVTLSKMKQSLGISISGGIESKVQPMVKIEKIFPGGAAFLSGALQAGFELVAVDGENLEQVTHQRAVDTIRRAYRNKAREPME

PDZRN4_1, Q6ZMN7 = target: PDZRN4_1, Q6ZMN7
PDZRN4_1, Q6ZMN7, sequence (Q6ZMN7 213-318): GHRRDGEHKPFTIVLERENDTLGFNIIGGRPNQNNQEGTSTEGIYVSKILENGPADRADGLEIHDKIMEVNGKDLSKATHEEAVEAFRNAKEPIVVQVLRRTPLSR

PTPN13_1, Q12923 = target: T7, PTPN13_1, Q12923
T7 sequence (Q12923 1088-1188, limits assumed, looked up): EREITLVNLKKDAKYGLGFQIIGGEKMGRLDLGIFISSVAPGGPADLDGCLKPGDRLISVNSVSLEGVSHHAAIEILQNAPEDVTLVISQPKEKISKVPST

PTPN3, P26045 = target: PTPN3, P26045
PTPN3, P26045, sequence (P26045 505-587): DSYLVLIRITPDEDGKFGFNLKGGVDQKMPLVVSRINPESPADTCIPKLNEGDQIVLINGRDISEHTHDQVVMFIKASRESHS

RHPN1, Q8TCX5 = target: T8, RHPN1, Q8TCX5
T8 sequence (Q8TCX5 508-602, limits assumed, looked up): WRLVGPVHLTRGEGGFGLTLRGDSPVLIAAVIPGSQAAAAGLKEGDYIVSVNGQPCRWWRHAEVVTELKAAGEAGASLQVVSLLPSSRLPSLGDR

SNTA1, Q13424 = target: T9, SNTA1, Q13424
T9 sequence (Q13424 82-180, limits assumed, looked up): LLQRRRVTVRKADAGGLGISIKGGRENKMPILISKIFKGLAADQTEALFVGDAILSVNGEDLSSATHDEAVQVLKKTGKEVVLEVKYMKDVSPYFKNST

SNTG2, Q9NY99 = target: T10, SNTG2, Q9NY99
T10 sequence (Q9NY99 68-166, limits assumed, looked up): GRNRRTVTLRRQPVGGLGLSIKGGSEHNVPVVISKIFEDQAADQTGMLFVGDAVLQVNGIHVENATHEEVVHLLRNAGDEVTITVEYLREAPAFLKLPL

TJP3_3, O95049 = target: T11, TJP3_3, O95049
T11 sequence (O95049 375-456, limits assumed, looked up): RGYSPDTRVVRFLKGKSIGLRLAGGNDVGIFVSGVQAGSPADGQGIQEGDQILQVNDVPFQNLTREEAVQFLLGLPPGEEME

TX1BP3, O14907 = target: T12, TX1BP3, O14907
T12 sequence (O14907 10-122, limits assumed, looked up): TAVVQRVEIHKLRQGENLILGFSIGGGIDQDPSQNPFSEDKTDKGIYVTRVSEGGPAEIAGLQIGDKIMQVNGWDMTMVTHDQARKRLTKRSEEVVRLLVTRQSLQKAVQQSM

[1] = plain residues with an end cap or a label only (N-terminal biotin on a linker: ado-ado)
[2] = modified: phospho on T at position -2 from the C-terminal residue

pKd (APBA3_1, O96018; [1]): below the threshold
pKd (ARHGEF12, Q9NZN5-2; [1]): 4.91
pKd (DLG2_3, Q15700; [1]): below the threshold
pKd (DVL3, Q92997; [1]): below the threshold
pKd (FRMPD1, Q5SYB0; [1]): below the threshold
pKd (FRMPD2_1, Q68DX3; [1]): below the threshold
pKd (FRMPD2_2, Q68DX3; [1]): below the threshold
pKd (FRMPD3, Q5JV73; [1]): below the threshold
pKd (GORASP1, Q9BQQ3; [1]): below the threshold
pKd (GRIP2_3, Q9C0E4; [1]): below the threshold
pKd (HTRA3, P83110; [1]): below the threshold
pKd (Inadl_4, Q8NI35; [1]): below the threshold
pKd (Inadl_5, Q8NI35; [1]): below the threshold
pKd (LIN7C, Q9NUP9; [1]): below the threshold
pKd (MAGI2_4, Q86UL8; [1]): below the threshold
pKd (MAST1, Q9Y2H9; [1]): 4.49
pKd (PDZD7_3, Q9H5P4; [1]): 4.71
pKd (PDZRN4_1, Q6ZMN7; [1]): 3.9
pKd (PTPN13_1, Q12923; [1]): below the threshold
pKd (PTPN3, P26045; [1]): 4.82
pKd (RHPN1, Q8TCX5; [1]): 3.66
pKd (SNTA1, Q13424; [1]): 3.95
pKd (SNTG2, Q9NY99; [1]): below the threshold
pKd (TJP3_3, O95049; [1]): below the threshold
pKd (TX1BP3, O14907; [1]): 3.86
Binder: LEPAVRSSEL [SH2D3C, Q8N5H7]

pKd (APBA3_1, O96018; [1]): below the threshold
pKd (ARHGEF12, Q9NZN5-2; [1]): 3.86
pKd (DLG2_3, Q15700; [1]): 4.89
pKd (DVL3, Q92997; [1]): below the threshold
pKd (FRMPD1, Q5SYB0; [1]): below the threshold
pKd (FRMPD2_1, Q68DX3; [1]): 3.54
pKd (FRMPD2_2, Q68DX3; [1]): 3.55
pKd (FRMPD3, Q5JV73; [1]): below the threshold
pKd (GORASP1, Q9BQQ3; [1]): below the threshold
pKd (GRIP2_3, Q9C0E4; [1]): below the threshold
pKd (HTRA3, P83110; [1]): below the threshold
pKd (Inadl_4, Q8NI35; [1]): below the threshold
pKd (Inadl_5, Q8NI35; [1]): below the threshold
pKd (LIN7C, Q9NUP9; [1]): below the threshold
pKd (MAGI2_4, Q86UL8; [1]): 3.52
pKd (MAST1, Q9Y2H9; [1]): 4.29
pKd (PDZD7_3, Q9H5P4; [1]): 4.07
pKd (PDZRN4_1, Q6ZMN7; [1]): 3.75
pKd (PTPN13_1, Q12923; [1]): below the threshold
pKd (PTPN3, P26045; [1]): 4.54
pKd (RHPN1, Q8TCX5; [1]): below the threshold
pKd (SNTA1, Q13424; [1]): 3.86
pKd (SNTG2, Q9NY99; [1]): below the threshold
pKd (TJP3_3, O95049; [1]): below the threshold
pKd (TX1BP3, O14907; [1]): 4.85
Binder: SMLNRRTTPV [CACNG4, Q9UBN1]

pKd (APBA3_1, O96018; [2]): below the threshold
pKd (ARHGEF12, Q9NZN5-2; [2]): below the threshold
pKd (DLG2_3, Q15700; [2]): below the threshold
pKd (DVL3, Q92997; [2]): below the threshold
pKd (FRMPD1, Q5SYB0; [2]): below the threshold
pKd (FRMPD2_1, Q68DX3; [2]): below the threshold
pKd (FRMPD2_2, Q68DX3; [2]): below the threshold
pKd (FRMPD3, Q5JV73; [2]): below the threshold
pKd (GORASP1, Q9BQQ3; [2]): 3.75
pKd (GRIP2_3, Q9C0E4; [2]): below the threshold
pKd (HTRA3, P83110; [2]): below the threshold
pKd (Inadl_4, Q8NI35; [2]): below the threshold
pKd (Inadl_5, Q8NI35; [2]): below the threshold
pKd (LIN7C, Q9NUP9; [2]): below the threshold
pKd (MAGI2_4, Q86UL8; [2]): below the threshold
pKd (MAST1, Q9Y2H9; [2]): below the threshold
pKd (PDZD7_3, Q9H5P4; [2]): 3.5
pKd (PDZRN4_1, Q6ZMN7; [2]): below the threshold
pKd (PTPN13_1, Q12923; [2]): below the threshold
pKd (PTPN3, P26045; [2]): below the threshold
pKd (RHPN1, Q8TCX5; [2]): below the threshold
pKd (SNTA1, Q13424; [2]): below the threshold
pKd (SNTG2, Q9NY99; [2]): below the threshold
pKd (TJP3_3, O95049; [2]): below the threshold
pKd (TX1BP3, O14907; [2]): below the threshold
Binder: RRVRKLPSTTL [RPS6KA1_-2P, Q15418]
